Measured values reported in patent US20230295316A1 (FRED HUTCHINSON CANCER CENTER, published 2023).
Like-named read-outs stand apart in the source and are kept apart here. Each block holds one binder with its values, some of them ahead of it.

Assays:
[1] = biological target: T1, Hs_CD123_6His-Avi (CD123 ECD-His-Avi fusion protein) (human, UniProt P26951 19-303); assay: SPR (Biacore T-100), univalent affinity; antibody captured on the CM4 chip, human CD123 ECD as analyte
T1 construct: The signal peptide is marked only by bold type, so its limits cannot be read here and were not guessed; also called His-Avi tagged peptide encompassing the ECD of human CD123
T1 sequence: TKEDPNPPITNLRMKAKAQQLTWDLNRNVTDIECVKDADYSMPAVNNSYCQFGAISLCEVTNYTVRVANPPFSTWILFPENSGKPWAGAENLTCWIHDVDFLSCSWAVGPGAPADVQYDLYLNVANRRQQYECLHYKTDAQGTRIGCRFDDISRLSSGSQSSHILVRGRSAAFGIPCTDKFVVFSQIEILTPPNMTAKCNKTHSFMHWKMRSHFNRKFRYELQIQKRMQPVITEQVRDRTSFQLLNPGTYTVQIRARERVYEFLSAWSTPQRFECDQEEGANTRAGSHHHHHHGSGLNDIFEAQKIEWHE
Description: FIGS. 13A-13B. Surface plasmon resonance (Biacore T-100) analyses were performed to rigorously/precisely determine univalent binding affinities of recombinant chimeric and humanized versions of the anti-human CD123 monoclonal antibody 10C4, using (FIG. 13A) human IgG1 and (FIG. 13B) human IgG4 frameworks. For these experiments, a peptide encoding the complete extracellular portion of human CD123 was used, and the antibodies were captured on the biosensor chip (CM4) via a Fc gamma-specific goat anti-human IgG and amine coupling.

[2] = biological target: T1, Hs_CD123_6His-Avi (CD123 ECD-His-Avi …); assay: competition ELISA against biotinylated 10C4 on coated CD123 ECD-His-Avi; percent relative to the 10C4 row of the drawn table
Source text: (§1) FIGS. 15A-15B. Enzyme-linked immunosorbent assay (ELISA) with the original mouse 10C4 antibody and peptide encompassing the entire extracellular domain (ECD) of CD123 was used to test competitive binding of 10C4 compared to recombinant (FIG. 15A) human IgG1 versions and (FIG. 15B) human IgG4 versions of chimeric 10C4 and humanized 10C4 monoclonal antibodies. Plates were coated with CD123 ECD-His-Avi fusion protein and bound to biotinylated 10C4 antibody in the presence or absence of increasing amounts of competing unlabeled antibodies, as detected by HRP-Streptavidin.

[3] = biological target: T1, Hs_CD123_6His-Avi (CD123 ECD-His-Avi …); assay: competition ELISA: plate coated with CD123 ECD-His-Avi, biotinylated 10C4 as competitor, increasing unlabeled antibody, HRP-streptavidin; unit not given, x axis is log(concentration)
Source text: as §1

[4] = biological target: T1, Hs_CD123_6His-Avi (CD123 ECD-His-Avi …); assay: as above; remark: listed apart in the source
Source text: as §1

[5] = biological target: T2, human interleukin-3 (IL-3) receptor alpha-chain (CD123), on cells (human, UniProt P26951 19-378); assay: flow cytometry (PE-Cy7-A), mAb + labeled secondary antibody, RS4;11 cells transduced with human CD123
T2 construct: whole, on cells; also called human CD123

[6] = biological target: T2, human interleukin-3 (IL-3) receptor …; assay: flow cytometry (PE-A), recombinant human IgG1 mAb + labeled secondary antibody, parental MOLM-13 cells against MOLM-13 CD123KO
[7] = biological target: T2, human interleukin-3 (IL-3) receptor …; assay: flow cytometry (PE-A), 2 µg/mL by the legend (hybridoma supernatants by paragraph 203) + labeled secondary antibody, parental MOLM-13 cells against MOLM-13 CD123KO
[8] = biological target: T2, human interleukin-3 (IL-3) receptor …; assay: flow cytometry (APC-A), unmodified mAb + secondary antibody, RS4;11 cells overexpressing human CD123 [CONT.]
Source text: FIG. 4. Parental CD123-negative human RS4;11 ALL cells and RS4;11 cells engineered to overexpress human CD123 were used for flow cytometric phenotyping of a series of anti-CD123 mAbs (11F11, 5G4, 10C4, 1H8) that were either left unmodified or were reacted with 5, 10, or 15 equivalents of B10. A secondary mAb-only control is also shown.

- Kd [1]: 1.39 nM
- koff [1]: 0.00011 s⁻¹
- kon [1]: 79100 M⁻¹ s⁻¹
- Immunoreactivity [2]: 116%
- Calculated concentration at 1/2 OD [3]: 1.21
B1: Chi-10C4, recombinant chimeric 10C4, human IgG4 framework (antibody)
heavy: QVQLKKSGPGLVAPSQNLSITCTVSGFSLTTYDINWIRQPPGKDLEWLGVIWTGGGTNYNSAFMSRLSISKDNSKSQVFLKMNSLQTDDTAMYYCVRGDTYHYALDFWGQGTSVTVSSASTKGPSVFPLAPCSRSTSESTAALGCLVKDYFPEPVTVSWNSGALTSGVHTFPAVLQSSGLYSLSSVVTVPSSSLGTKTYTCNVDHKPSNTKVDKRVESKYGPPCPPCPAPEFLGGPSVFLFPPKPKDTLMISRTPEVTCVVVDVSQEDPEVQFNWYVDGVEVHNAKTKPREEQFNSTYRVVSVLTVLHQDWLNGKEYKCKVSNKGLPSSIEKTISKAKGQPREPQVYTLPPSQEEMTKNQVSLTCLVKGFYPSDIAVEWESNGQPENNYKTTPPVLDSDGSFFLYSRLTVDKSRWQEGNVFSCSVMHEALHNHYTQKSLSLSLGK
light: DIVMSQSPSSLAVSAGEKVTMSCKSSQSLLSSGTRKNYLAWYQQKPGQSPKLLIYWASTRESGVPDRFTGSGSGTDFTLTISSVQAEDLAVYYCKQSYILFTFGSGTKLEIKRTVAAPSVFIFPPSDEQLKSGTASVVCLLNNFYPREAKVQWKVDNALQSGNSQESVTEQDSKDSTYSLSSTLTLSKADYEKHKVYACEVTHQGLSSPVTKSFNRGEC
notes: Signal peptide left out as for the IgG1 form

- Kd [1]: 0.572 nM
- koff [1]: 5.24e-05 s⁻¹
- kon [1]: 91600 M⁻¹ s⁻¹
- Immunoreactivity [2]: 100%
- Calculated concentration at 1/2 OD [4]: 1.12
B2: Chi-10C4, recombinant chimeric 10C4, human IgG1 framework (antibody)
heavy: not shown
light: DIVMSQSPSSLAVSAGEKVTMSCKSSQSLLSSGTRKNYLAWYQQKPGQSPKLLIYWASTRESGVPDRFTGSGSGTDFTLTISSVQAEDLAVYYCKQSYILFTFGSGTKLEIKRTVAAPSVFIFPPSDEQLKSGTASVVCLLNNFYPREAKVQWKVDNALQSGNSQESVTEQDSKDSTYSLSSTLTLSKADYEKHKVYACEVTHQGLSSPVTKSFNRGEC

- binding result [5]: binds
B3: 123-12A10 (murine anti-CD123 antibody, IgG2b isotype, Kappa Light Chain) (antibody, V domains shown)
VH: EVQLQQSGPELVKPGASVKISCKTSGYTFTDYYMNWVKQSHGKSLEWIGDIIPNNGGTSYHQKFKGKATLTVDKSSNTAYMELRSLTSEDSAVYYCARYGSSWFFDVWGTGTTVTVSS
VL: DIVMSQSPSSLAVSVGEKVTMSCKSSQSLLHSSNQKNYLAWYQQKPGQSPKLLIYWASTRESGVPDRFTGSGSGTDFTLTISSVKAEDLAVYYCQQYYSFPRTFGGGTKLEIK
notes: murine IgG2b, kappa

- binding result [6]: binds
B4: 123-ATX1F2, fully human recombinant antibody, human IgG1 framework (antibody)
heavy: not shown
light: DIQMTQSPSSLSASVGDRVTITCRASQGIRNDLGWYQQRPGKAPKRLIYAASSLQSGVPSRFSGSGSGTEFTLAISSLQPEDFATYSCLQHNSYPWTFGQGTKVEIKRTVAAPSVFIFPPSDEQLKSGTASVVCLLNNFYPREAKVQWKVDNALQSGNSQESVTEQDSKDSTYSLSSTLTLSKADYEKHKVYACEVTHQGLSSPVTKSFNRGEC
notes: also called 1F2 (human IgG1)

- binding result [5]: binds
B5: 123-5C7 (murine anti-CD123 antibody, IgG2b isotype, Kappa Light Chain) (antibody, V domains shown)
VH: DVQLQESGPGLVKPSQSLSLTCSVTGYSITSSYYWNWIRQFPGNKLEWMGYISYDGSNNYNPSLKNRISITRDTSKTQFFLNLNSVTTEDTATYYCARGDGYYFDYWGQGTTLTVSS
VL: DFVMSQSPSSLAVSVGEKITINCKSSQSLFFGSTQKNYLAWYQQKPGQSPKLLIFWSSTRESGVPDRFTGSGSGTDFTLSINSVKAEDLAVYYCQQYYNYPWTFGGGTKLEIK
notes: murine IgG2b, kappa

- Kd [1]: 0.401 nM
- koff [1]: 0.000102 s⁻¹
- kon [1]: 254000 M⁻¹ s⁻¹
- Calculated concentration at 1/2 OD [4]: 1.12
- Calculated concentration at 1/2 OD [3]: 1.04
B6: 123-10C4 (murine anti-CD123 antibody, IgG2b isotype, Kappa Light Chain) (antibody, V domains shown)
VH: QVQLKESGPGLVAPSQNLSITCTVSGFSLTTYDINWIRQPPGKGLEWLGVIWTGGGTNYNSAFMSRLSISKDNSKSQVFLKMNSLQTDDTAMYYCVRGDTYHYALDFWGQGTSVTVSS
VL: DIVMSQSPSSLAVSAGEKVTMSCKSSQSLLSSGTRKNYLAWYQQKPGQSPKLLIYWASTRESGVPDRFTGSGSGTDFTLTISSVQAEDLAVYYCKQSYILFTFGSGTKLEIK
notes: also called parent murine 10C4; murine anti-human CD123 monoclonal antibody 10C4

- binding result [7]: binds
B7: 123-ATX1F2 (Human anti-CD123 antibody from ATX-GX mouse, Kappa Light Chain) (antibody, V domains shown)
VH: QVQLVQSGAEVKKPGASVKVSCKVSGYTLTEFSMHWVRQAPGKGLEWMGVFDPEHGATIYAQKFQGRVTMTEDTSTDTAYMDLSYLRSEDTAVYYCATYFDFWSGYSHFDFWGQGTLVTVSS
VL: DIQMTQSPSSLSASVGDRVTITCRASQGIRNDLGWYQQRPGKAPKRLIYAASSLQSGVPSRFSGSGSGTEFTLAISSLQPEDFATYSCLQHNSYPWTFGQGTKVEIK

- binding result [7]: binds
B8: 123-ATX1B2 (Human anti-CD123 antibody from ATX-GX mouse, Kappa Light Chain) (antibody, V domains shown)
VH: QVQLVQSGAEVKKPGASVEVSCKASGYTFTGYYIHWVRQAPGQGLEWMGWINPNSGGTNYAQKFQGRVTMTWDTSISTAFMELSRLRSDDTAVYSCARDRGGPYFDYWGQGTLVIVSS
VL: DIQMTQSPSSLSASVGDRVTITCQASQDITNYLNWYQQKPGKAPKLQIYDASNLETGVPSRFSGSGSGTDFTFTISSLQPEDIATYYCQQHDDLPLTFGGGTKVEIK

- binding result [8]: binds
B9: 123-5G4 (murine anti-CD123 antibody, IgG2a isotype, Kappa Light Chain) (antibody, V domains shown)
VH: DVQLQESGPGLVKPSQSLSLTCTVTGYSITSDYVWNWIRQFPGNKLEWMAYISYSGTTSYNPSLSSRISITRDTSSNQFFLQLNSVTSEDTATYYCARGLDYWGQGTSVTVSS
VL: QIVLTQSPAIMSVSLGERVTMTCTASSSVTSSYFHWYQQKPGSSPKLWIYSTSNLASGVPARFSGSGSGTSYSLTISSMEAEDAATYYCHQYHRSPRTFGGGTKLEIK
notes: murine IgG2a, kappa

- binding result [5]: binds
B10: 123-13E1 (murine anti-CD123 antibody, IgG2b isotype, Kappa Light Chain) (antibody, V domains shown)
VH: EVQLQQSGPELVKPGASVKISCKASGYTFTDHYMNWVKQSHGERLEWIGDIIPNNGGSTYSQKFKGKATLTVDKSSSTAYMELRSLTSEDSAVYYCARNGYYWYFDVWGTGTTVTVSS
VL: DIVLTQSPSSLAMSVGQKVTMSCKSSQSLLNSSNQKNYLAWYQQKPGQSPKLLVYFASTRESGVPDRFTGSGSGTDFTLTISTVQAEDLAFYYCHQHYSIPRTFGGGTKLEIT
notes: murine IgG2b, kappa

- binding result [8]: binds
B11: 123-1H8 (murine anti-CD123 antibody, IgG1 isotype, Kappa Light Chain) (antibody, V domains shown)
VH: EVKLVESEGGLVQPGSSMKLSCTASGFTFSDYYMAWVRQVPEKGLEWVANIDDEGSSTYYLDSLKSRFIISRDNAKNILYLQMTSLKSEDTATYYCARGTTQTSFFVHWGQGTLVTVSA
VL: DIVLTQSPASLAVSLGQRATISCRASQSVSSSSYSFMHWYQKKPRQPPKLLIKYASTLEAGVPARFSGSGSGTDFTLNIHPVEEEDTATYYCQHSWEIPYTFGGGTKLEIK
notes: murine IgG1, kappa

- binding result [7]: binds
B12: 123-ATX1B7 (Human anti-CD123 antibody from ATX-GX mouse, Kappa Light Chain) (antibody, V domains shown)
VH: QVQLVQSGAEVKKPGASVKVSCKASGYTFTSFGLTWVRQAPGQGLEWMGWFNAYSGKTYYAPTLQDRVTMTTDPSTSTAYMELMSLTSDDTAIYYCARDLVFDYWGQGTLVTVSS
VL: EIVLTQSPGTLSLSPGERATLSCRASQSFSDRYLAWYQQKPGQAPRLLIYGTSSRATGIPDRFSGSGSGTDFTLTISRLESEDSAVYYCQQYGRSPFTFGPGTKVDIK

- binding result [7]: binds
B13: 123-ATX1E5 (Human anti-CD123 antibody from ATX-GX mouse, Kappa Light Chain) (antibody, V domains shown)
VH: QVQLVQSGAEVKKPGASVKVSCKASGYTFTSFGISWVRQAPGQGLEWMGWFNAYSGNTYYAPTLQDRVTMTTDTSTSTAYMELMSLRSDDTAIYYCARDLVFDYWGQGTLVTVSS
VL: EIVLTQSPGTLSLSPGERATLSCRASQSFSDRYLAWYQQKPGQAPRLLIYGTFSRATGIPDRFSGSGSGTDFTLTISRLDSEDFAVYYCQQYGSSPFTFGPGTKVDIK
